Measured values as given in US20160145657A1, “Methods and Materials for Producing 7-Carbon Chemicals via a C9 Route” (INVISTA North America S.á.r.l., priority 2014, published 2016).

Experiments:
Format in all cases: biochemical
[1] = ω-transaminase activity, forward direction (pimelate semialdehyde to 7-aminoheptanoate), pyruvate formation by RP-HPLC; settings: for acceptance of pimelate semialdehyde as substrate (conversion of L-alanine to pyruvate) against the empty vector control: cell free extract, 10 mM pimelate semialdehyde, 10 mM L-alanine, pH 7.5, 25° C., 4 h, FIG. 14; for reversibility of ω-transaminase activity: pimelate semialdehyde accepted, 7-aminoheptanoate synthesized: conclusion from reverse and forward assays of Example 1
Method: (§1) A nucleotide sequence encoding an N-terminal His-tag was added to the nucleic acid sequences from Chromobacterium violaceum, Pseudomonas syringae, Rhodobacter sphaeroides, and Vibrio fluvialis encoding the ω-transaminases of SEQ ID NOs: 7, 9, 10 and 12, respectively (see FIG. 6) such that N-terminal HIS tagged ω-transaminases could be produced. Each of the resulting modified genes was cloned into a pET21a expression vector under control of the T7 promoter and each expression vector was transformed into a BL21[DE3] E. coli host. The resulting recombinant E. coli strains were cultivated at 37° C. in a 250 mL shake flask culture containing 50 mL LB media and antibiotic selection pressure, with shaking at 230 rpm. Each culture was induced overnight at 16° C. using 1 mM IPTG.
(§2) The pellet from each induced shake flask culture was harvested via centrifugation. Each pellet was resuspended and lysed via sonication. The cell debris was separated from the supernatant via centrifugation and the cell free extract was used immediately in enzyme activity assays.
Enzyme activity in the forward direction (i.e., pimelate semialdehyde to 7-aminoheptanoate) was confirmed for the transaminases of SEQ ID NO 9, SEQ ID NO 10 and SEQ ID NO 12. Enzyme activity assays were performed in a buffer composed of a final concentration of 50 mM HEPES buffer (pH=7.5), 10 mM pimelate semialdehyde, 10 mM L-alanine and 100 μM pyridoxyl 5′ phosphate. Each enzyme activity assay reaction was initiated by adding a cell free extract of the ω-transaminase gene product or the empty vector control to the assay buffer containing the pimelate semialdehyde and incubated at 25° C. for 4 h, with shaking at 250 rpm. The formation of pyruvate was quantified via RP-HPLC.

[2] = ω-transaminase activity, reverse direction (7-aminoheptanoate to pimelate semialdehyde), L-alanine formation by RP-HPLC; settings: cell free extract, 10 mM 7-aminoheptanoate, 10 mM pyruvate, pH 7.5, 25° C., 4 h; FIG. 13
Method: as §1, §2
Enzyme activity assays in the reverse direction (i.e., 7-aminoheptanoate to pimelate semialdehyde) were performed in a buffer composed of a final concentration of 50 mM HEPES buffer (pH=7.5), 10 mM 7-aminoheptanoate, 10 mM pyruvate and 100 μM pyridoxyl 5′ phosphate. Each enzyme activity assay reaction was initiated by adding cell free extract of the ω-transaminase gene product or the empty vector control to the assay buffer containing the 7-aminoheptanoate and incubated at 25° C. for 4 h, with shaking at 250 rpm. The formation of L-alanine from pyruvate was quantified via RP-HPLC.

[3] = ω-transaminase activity, 7-aminoheptanol to 7-oxoheptanol, L-alanine formation by RP-HPLC; settings: for acceptance of 7-aminoheptanol as substrate (conversion of pyruvate to L-alanine) against the empty vector control: cell free extract, 10 mM 7-aminoheptanol, 10 mM pyruvate, pH 7.5, 25° C., 4 h, FIG. 17; for acceptance of 7-oxoheptanol as substrate forming 7-aminoheptanol, concluded from reversibility: inferred from reverse direction assay and Example 1
Method: A nucleotide sequence encoding an N-terminal His-tag was added to the Chromobacterium violaceum, Pseudomonas syringae and Rhodobacter sphaeroides nucleic acids encoding the ω-transaminases of SEQ ID NOs: 7, 9 and 10, respectively (see FIG. 6) such that N-terminal HIS tagged ω-transaminases could be produced. The modified genes were cloned into a pET21a expression vector under the T7 promoter. Each expression vector was transformed into a BL21[DE3] E. coli host. Each resulting recombinant E. coli strain were cultivated at 37° C. in a 250 mL shake flask culture containing 50 mL LB media and antibiotic selection pressure, with shaking at 230 rpm. Each culture was induced overnight at 16° C. using 1 mM IPTG.
as §2
Enzyme activity assays in the reverse direction (i.e., 7-aminoheptanol to 7-oxoheptanol) were performed in a buffer composed of a final concentration of 50 mM HEPES buffer (pH=7.5), 10 mM 7-aminoheptanol, 10 mM pyruvate, and 100 μM pyridoxyl 5′ phosphate. Each enzyme activity assay reaction was initiated by adding cell free extract of the ω-transaminase gene product or the empty vector control to the assay buffer containing the 7-aminoheptanol and then incubated at 25° C. for 4 h, with shaking at 250 rpm. The formation of L-alanine was quantified via RP-HPLC.

[4] = carboxylate reductase activity, N7-acetyl-7-aminoheptanoate to N7-acetyl-7-aminoheptanal, NADPH consumption at 340 nm; settings: purified enzyme enhanced by sfp gene product, 2 mM N7-acetyl-7-aminoheptanoate, pH 7.5, room temperature, 20 min; FIG. 10
Method: The activity of each of the N-terminal His-tagged carboxylate reductases of SEQ ID NOs: 3, 5, and 6 (see Examples 2 and 3, and FIG. 6) for converting N7-acetyl-7-aminoheptanoate to N7-acetyl-7-aminoheptanal was assayed in triplicate in a buffer composed of a final concentration of 50 mM HEPES buffer (pH=7.5), 2 mM N7-acetyl-7-aminoheptanoate, 10 mM MgCl2, 1 mM ATP, and 1 mM NADPH. The assays were initiated by adding purified carboxylate reductase and phosphopantetheine transferase or the empty vector control to the assay buffer containing the N7-acetyl-7-aminoheptanoate then incubated at room temperature for 20 min. The consumption of NADPH was monitored by absorbance at 340 nm.

## SEQ ID NO 10: Rhodobacter sphaeroides ω-transaminase, Genbank Accession No. ABA81135.1
[1]
  acceptance of pimelate semialdehyde as substrate (conversion of L-alanine to pyruvate) against the empty vector control: accepted pimelate semialdehyde as substrate
  reversibility of ω-transaminase activity: pimelate semialdehyde accepted, 7-aminoheptanoate synthesized: accepted pimelate semialdehyde as substrate and synthesized 7-aminoheptanoate as a reaction product
[2]
  acceptance of 7-aminoheptanoate as substrate (conversion of pyruvate to L-alanine) against the empty vector control: accepted 7-aminoheptanote as substrate
[3]
  acceptance of 7-aminoheptanol as substrate (conversion of pyruvate to L-alanine) against the empty vector control: accepted 7-aminoheptanol as substrate
  acceptance of 7-oxoheptanol as substrate forming 7-aminoheptanol, concluded from reversibility: accept 7-oxoheptanol as substrate and form 7-aminoheptanol

B1: SEQ ID NO 9: Pseudomonas syringae ω-transaminase, Genbank Accession No. AAY39893.1 (protein)
chain: MSANNPQTLEWQALSSEHHLAPFSDYKQLKEKGPRIITRAEGVYLWDSEGNKILDGMSGLWCVAIGYGREELADAASKQMRELPYYNLFFQTAHPPVLELAKAISDIAPEGMNHVFFTGSGSEGNDTMLRMVRHYWALKGQPNKKTIISRVNGYHGSTVAGASLGGMTYMHEQGDLPIPGVVHIPQPYWFGEGGDMTPDEFGIWAAEQLEKKILELGVENVGAFIAEPIQGAGGVIVPPDSYWPKIKEILSRYDILFAADEVICGFGRTSEWFGSDFYGLRPDMMTIAKGLTSGYVPMGGLIVRDEIVAVLNEGGDFNHGFTYSGHPVAAAVALENIRILREEKIVERVRSETAPYLQKRLRELSDHPLVGEVRGVGLLGAIELVKDKTTRERYTDKGAGMICRTFCFDNGLIMRAVGDTMIIAPPLVISFAQIDELVEKARTCLDLTLAVLQG
[1]
  acceptance of pimelate semialdehyde as substrate (conversion of L-alanine to pyruvate) against the empty vector control: accepted pimelate semialdehyde as substrate
  reversibility of ω-transaminase activity: pimelate semialdehyde accepted, 7-aminoheptanoate synthesized: accepted pimelate semialdehyde as substrate and synthesized 7-aminoheptanoate as a reaction product
[2]
  acceptance of 7-aminoheptanoate as substrate (conversion of pyruvate to L-alanine) against the empty vector control: accepted 7-aminoheptanote as substrate
[3]
  acceptance of 7-aminoheptanol as substrate (conversion of pyruvate to L-alanine) against the empty vector control: accepted 7-aminoheptanol as substrate
  acceptance of 7-oxoheptanol as substrate forming 7-aminoheptanol, concluded from reversibility: accept 7-oxoheptanol as substrate and form 7-aminoheptanol

B2: SEQ ID NO 12: Vibrio fluvialis ω-transaminase, Genbank Accession No. AEA39183.1 (protein)
chain: MNKPQSWEARAETYSLYGFTDMPSLHQRGTVVVTHGEGPYIVDVNGRRYLDANSGLWNMVAGFDHKGLIDAAKAQYERFPGYHAFFGRMSDQTVMLSEKLVEVSPFDSGRVFYTNSGSEANDTMVKMLWFLHAAEGKPQKRKILTRWNAYHGVTAVSASMTGKPYNSVFGLPLPGFVHLTCPHYWRYGEEGETEEQFVARLARELEETIQREGADTIAGFFAEPVMGAGGVIPPAKGYFQAILPILRKYDIPVISDEVICGFGRTGNTWGCVTYDFTPDAIISSKNLTAGFFPMGAVILGPELSKRLETAIEAIEEFPHGFTASGHPVGCAIALKAIDVVMNEGLAENVRRLAPRFEERLKHIAERPNIGEYRGIGFMWALEAVKDKASKTPFDGNLSVSERIANTCTDLGLICRPLGQSVVLCPPFILTEAQMDEMFDKLEKALDKVFAEVA
[1]
  acceptance of pimelate semialdehyde as substrate (conversion of L-alanine to pyruvate) against the empty vector control: accepted pimelate semialdehyde as substrate
  reversibility of ω-transaminase activity: pimelate semialdehyde accepted, 7-aminoheptanoate synthesized: accepted pimelate semialdehyde as substrate and synthesized 7-aminoheptanoate as a reaction product
[2]
  acceptance of 7-aminoheptanoate as substrate (conversion of pyruvate to L-alanine) against the empty vector control: accepted 7-aminoheptanote as substrate

B3: SEQ ID NO 3: Mycobacterium smegmatis carboxylate reductase, Genbank Accession No. ABK71854.1 (protein)
chain: MTSDVHDATDGVTETALDDEQSTRRIAELYATDPEFAAAAPLPAVVDAAHKPGLRLAEILQTLFTGYGDRPALGYRARELATDEGGRTVTRLLPRFDTLTYAQVWSRVQAVAAALRHNFAQPIYPGDAVATIGFASPDYLTLDLVCAYLGLVSVPLQHNAPVSRLAPILAEVEPRILTVSAEYLDLAVESVRDVNSVSQLVVFDHHPEVDDHRDALARAREQLAGKGIAVTTLDAIADEGAGLPAEPIYTADHDQRLAMILYTSGSTGAPKGAMYTEAMVARLWTMSFITGDPTPVINVNFMPLNHLGGRIPISTAVQNGGTSYFVPESDMSTLFEDLALVRPTELGLVPRVADMLYQHHLATVDRLVTQGADELTAEKQAGAELREQVLGGRVITGFVSTAPLAAEMRAFLDITLGAHIVDGYGLTETGAVTRDGVIVRPPVIDYKLIDVPELGYFSTDKPYPRGELLVRSQTLTPGYYKRPEVTASVFDRDGYYHTGDVMAETAPDHLVYVDRRNNVLKLAQGEFVAVANLEAVFSGAALVRQIFVYGNSERSFLLAVVVPTPEALEQYDPAALKAALADSLQRTARDAELQSYEVPADFIVETEPFSAANGLLSGVGKLLRPNLKDRYGQRLEQMYADIAATQANQLRELRRAAATQPVIDTLTQAAATILGTGSEVASDAHFTDLGGDSLSALTLSNLLSDFFGFEVPVGTIVNPATNLAQLAQHIEAQRTAGDRRPSFTTVHGADATEIRASELTLDKFIDAETLRAAPGLPKVTTEPRTVLLSGANGWLGRFLTLQWLERLAPVGGTLITIVRGRDDAAARARLTQAYDTDPELSRRFAELADRHLRVVAGDIGDPNLGLTPEIWHRLAAEVDLVVHPAALVNHVLPYRQLFGPNVVGTAEVIKLALTERIKPVTYLSTVSVAMGIPDFEEDGDIRTVSPVRPLDGGYANGYGNSKWAGEVLLREAHDLCGLPVATFRSDMILAHPRYRGQVNVPDMFTRLLLSLLITGVAPRSFYIGDGERPRAHYPGLTVDFVAEAVTTLGAQQREGYVSYDVMNPHDDGISLDVFVDWLIRAGHPIDRVDDYDDWVRRFETALTALPEKRRAQTVLPLLHAFRAPQAPLRGAPEPTEVFHAAVRTAKVGPGDIPHLDEALIDKYIRDLREFGLI
[4]
  acceptance of N7-acetyl-7-aminoheptanoate as substrate (NADPH consumption) against the empty vector control: accepted N7-acetyl-7-aminoheptanoate as substrate
